Measurements as given in article PMC6529637.

Target: BamA (E. coli (endogenous in MC4100-derived strains)), P0A940
Test: cross-linking; in vivo formaldehyde cross-linking (0.7%, 12 min, room temperature, cells in PBS pH 7.6), SDS-PAGE and immunoblot with anti-RcsF and anti-BamA; strains grown in glucose minimal medium at 30°C; backgrounds: WT, ΔbamE, bamA101, bamB::Kan, bamD(R197L), bamD(L13P), bamA(F494L) and combinations
Details: remark: other sources report otherwise

B1: regulator of capsule synthesis protein F (RcsF), P69411 16-134 (natural protein)
chain: CSMLSRSPVEPVQSTAPQPKAEPAKPKAPRATPVRIYTNAEELVGKPFRDLGEVSGDSCQASNQDSPPSIPTARKRMQINASKMKANAVLLHSCEVTSGTPGCYRQAVCIGSALNITAK
modifications: here or on the partner: lipid moiety on the N-terminal domain (lipoprotein)
fraction of BamA cross-linked to RcsF (ΔbamE strain): 30%
